In doi:10.1101/2020.10.14.337170:
Where two headings read alike, the source gives them in different places.

Tests used:
[1] = target: KKT4^2–114 (Trypanosoma brucei); experiment: SEC-MALS
[2] = target: KKT4^2–114 (Trypanosoma brucei); experiment: SEC-MALS; remark: listed apart in the source
[3] = target: Leishmania mexicana KKT4^184–284 (Leishmania mexicana); experiment: crystal structure
[4] = target: Fluorescently-labelled phosphopeptide derived from KKT8 (Trypanosoma brucei); experiment: fluorescence polarisation
[5] = target: SNAP-6HIS-3FLAG-KKT4 (KKT4^2–645) (Trypanosoma brucei); experiment: SEC-MALS
[6] = target: KKT4^101–352 (Trypanosoma brucei); experiment: SEC-MALS
[7] = target: Trypanosoma cruzi (Sylvio X10) KKT4^117–218 (Trypanosoma cruzi (Sylvio X10)); experiment: crystal structure

How did the stoichiometry N [1] turn out when KKT4^2–114 (domain or fragment) was run?
Its stoichiometry N is 4.

And the stoichiometry N [2]?
The stoichiometry N was 3.

How did the stoichiometry N [3] turn out when “Leishmania mexicana KKT4^184–284 (domain or fragment)” was run?
The stoichiometry N was 2.

How did the Kd [4] turn out when “KKT4^463–645 (KKT4 BRCT domain) (domain or fragment)” was run?
Its Kd is 30 µM.

For “SNAP-6HIS-3FLAG-KKT4 (KKT4^2–645) (natural protein)”, which stoichiometry N [5] is on record?
Its stoichiometry N is 4.

With KKT4^101–352 (domain or fragment) as the substance, how does the stoichiometry N [6] read?
Its stoichiometry N is 2.

With “Trypanosoma cruzi (Sylvio X10) KKT4^117–218 (domain or fragment)” as the substance, how does the stoichiometry N [7] read?
The stoichiometry N was 2.
